From patent publication US20190309044A1, “POLYPEPTIDES AND USES THEREOF AS A DRUG FOR TREATMENT OF AUTOIMMUNE DISORDERS” (Compugen Ltd., priority 2017, published 2019)

Columns and labels:
SJL/J mice = experiment: BBB breakdown and inflammation by fluorescence molecular tomography, adoptive transfer R-EAE; format: in vivo, mouse; conditions: Day +30
Method: Commercially available near infrared (NIR) imaging agents were used to perform tomographic imaging (PerkinElmer Inc., Boston, Mass.). AngioSense®750 was used as a vascular imaging agent, and Cat B® 680 FAST was used to detect regions of increased lysosomal cathepsin B activity. For the in vivo imaging, mice were injected intravenously with 4 nmol of NIR fluorescent agent 24 hrs prior to imaging, and imaged following the last treatment with Control Ig or C1ORF32 ECD-Fc (SEQ ID NO: 42) (Day +30 post-PLP139-151 blast cell transfer). At the time of imaging, mice were anesthetized by administration of sodium pentobarbital (50 mg/kg) and then imaged using the FMT 2500 fluorescence molecular tomography in vivo imaging system (PerkinElmer Inc., Boston, Mass.). […] Appropriate optical filters allowed the collection of both fluorescence and excitation datasets, and the multiple source-detector fluorescence projections were normalized to the paired collection of laser excitation data. […] The collected fluorescence data was reconstructed by FMT 2500 system software (TrueQuant, PerkinElmer Inc., Boston, Mass.) which compensates for the effects of tissue heterogeneity on light scattering, allowing for the quantification of fluorescence signal within multiple organ regions. […] All data was normalized to fluorescence detected in CFA/saline-immunized healthy control mice. […]

male DBA-1 mice = experiment: Established collagen induced arthritis (CIA), macroscopic and histological scores; format: in vivo, mouse
Method: Bovine type II collagen (CII) (RUNMC in house production, batch 03-04-08) at a concentration of 2 mg/ml in acetic acid 0.05M was emulsified in equal volumes of Freund's complete adjuvant (2 mg/ml of Mycobacterium tuberculosis strain H37Ra; Difco, Detroit, Mich.).
On day 0, 10-12 week old male DBA-1 mice (Janvier Elevage, France) (n=95) were immunized i.d. at the base of the tail with 100 μg of bovine CII. On day 21, mice received an intraperitoneal booster injection of 50 μg of CII dissolved in phosphate buffered saline (PBS), and the onset of arthritis occurred a few days after this booster.
Joint inflammation in each paw was scored visually, using a scale of 0-2 per paw with a maximal score of 8 per animal: 0=non inflamed, 1=mild inflammation, 1.5=marked inflammation, and 2=severe inflammation. Scoring was performed three times a week.
Treatment was started in established CIA early after onset of disease (i.e. therapeutic regimen), when the macroscopic scores per animal were between 0.25 and 1.25 (on a scale of 0-8). […] Histology was scored for inflammation and destruction on an arbitrary scale of 0-3, for five different parameters: […]
Joints were fixed for at least 4 days in 4% formaldehyde, decalcified in 5% formic acid, and subsequently dehydrated and embedded in paraffin. […] The severity of inflammation in the joints was scored on a scale of 0-3 (0=no cells, 1=mild cellularity, 2=moderate cellularity, and 3=maximal cellularity). […] Depletion of PG was determined using an arbitrary scale of 0-3, ranging from normal, fully stained cartilage to destained cartilage, fully depleted of PGs. Chondrocyte death was scored on a scale of 0-3 ranging from no loss of chondrocyte nuclei to complete empty cartilage surface. The degree of cartilage surface erosion was scored on a scale of 0-3, ranging from no damage to complete loss of articular cartilage. […] Histopathological changes in the joint were scored on three semiserial sections of the joint spaced 70 μm apart. […]

B1: C1ORF32 ECD-Fc (SEQ ID NO:42): human-mouse fusion protein: human C1ORF32 ECD fused to mouse immunoglobulin Fc (SEQ ID NO:42) (protein)
chain: LQVTVPDKKKVAMLFQPTVLRCHFSTSSHQPAVVQWKFKSYCQDRMGESLGMSSTRAQSLSKRNLEWDPYLDCLDSRRTVRVVASKQGSTVTLGDFYRGREITIVHDADLQIGKLMWGDSGLYYCIITTPDDLEGKNEDSVELLVLGRTGLLADLLPSFAVEIMGSENLYFQGSGEPRGPTIKPCPPCKCPAPNLLGGPSVFIFPPKIKDVLMISLSPIVTCVVVDVSEDDPDVQISWFVNNVEVHTAQTQTHREDYNSTLRVVSALPIQHQDWMSGKEFKCKVNNKDLPAPIERTISKPKGSVRAPQVYVLPPPEEEMTKKQVTLTCMVTDFMPEDIYVEWTNNGKTELNYKNTEPVLDSDGSYFMYSKLRVEKKNWVERNSYSCSVVHEGLHNHHTTKSFSRTPGK
modifications: Fusion protein human C1ORF32-ECD fused to mouse IgG2a Fc
SJL/J mice; did not reach statistical significance
  monocyte/macrophage activity in the brain and spinal cord (lysosomal CathepsinB activity): decreased monocyte/macrophage activity
SJL/J mice; significantly reduced levels
  vascular leakage in the brain and spinal cord (AngioSense): decreased vascular leakage
Male DBA-1 mice; 10 mg/kg i.p. 3x/wk 2 wks, p<0.001 vs mIgG2a
  clinical (macroscopic) scores of arthritis: significantly reduced
Male DBA-1 mice; mouse, in vivo
  overall outcome in three CIA studies: excellent results in two studies and weak results in one study
